Values of other authors, collected in patent publication US20200069786A1, “COMPOSITION AND PROCESS FOR PREPARING VACCINE” (TREOS BIO ZRT., priority 2018, published 2020).
Read-outs that look alike come from different tables or passages of the source.

B1: ACRBP (protein, UniProt Q8NEB7 26-543, looked up)
Acrosin-binding protein: QDSTQASTPGSPLSPTEYERFFALLTPTWKAETTCRLRATHGCRNPTLVQLDQYENHGLVPDGAVCSNLPYASWFESFCQFTHYRCSNHVYYAKRVLCSQPVSILSPNTLKEIEASAEVSPTTMTSPISPHFTVTERQTFQPWPERLSNNVEELLQSSLSLGGQEQAPEHKQEQGVEHRQEPTQEHKQEEGQKQEEQEEEQEEEGKQEEGQGTKEGREAVSQLQTDSEPKFHSESLSSNPSSFAPRVREVESTPMIMENIQELIRSAQEIDEMNEIYDENSYWRNQNPGSLLQLPHTEALLVLCYSIVENTCIITPTAKAWKYMEEEILGFGKSVCDSLGRRHMSTCALCDFCSLKLEQCHSEASLQRQQCDTSHKTPFVSPLLASQSLSIGNQVGSPESGRFYGLDLYGGLHMDFWCARLATKGCEDVRVSGWLQTEFLSFQDGDFPTKICDTDYIQYPNYCSFKSQQCLMRNRNRKVSRMRCLQNETYSALSPGKSEDVVLRWSQEFSTLTLGQFG
B2: MAGE-A8 (protein, UniProt P43361 1-318, looked up)
Melanoma-associated antigen 8: MLLGQKSQRYKAEEGLQAQGEAPGLMDVQIPTAEEQKAASSSSTLIMGTLEEVTDSGSPSPPQSPEGASSSLTVTDSTLWSQSDEGSSSNEEEGPSTSPDPAHLESLFREALDEKVAELVRFLLRKYQIKEPVTKAEMLESVIKNYKNHFPDIFSKASECMQVIFGIDVKEVDPAGHSYILVTCLGLSYDGLLGDDQSTPKTGLLIIVLGMILMEGSRAPEEAIWEALSVMGLYDGREHSVYWKLRKLLTQEWVQENYLEYRQAPGSDPVRYEFLWGPRALAETSYVKVLEHVVRVNARVRISYPSLHEEALGEEKGV
B3: IGFS11 (protein, UniProt Q5DX21 23-431, looked up)
Immunoglobulin superfamily …: LEVSESPGSIQVARGQPAVLPCTFTTSAALINLNVIWMVTPLSNANQPEQVILYQGGQMFDGAPRFHGRVGFTGTMPATNVSIFINNTQLSDTGTYQCLVNNLPDIGGRNIGVTGLTVLVPPSAPHCQIQGSQDIGSDVILLCSSEEGIPRPTYLWEKLDNTLKLPPTATQDQVQGTVTIRNISALSSGLYQCVASNAIGTSTCLLDLQVISPQPRNIGLIAGAIGTGAVIIIFCIALILGAFFYWRSKNKEEEEEEIPNEIREDDLPPKCSSAKAFHTEISSSDNNTLTSSNAYNSRYWSNNPKVHRNTESVSHFSDLGQSFSFHSGNANIPSIYANGTHLVPGQHKTLVVTANRGSSPQVMSRSNGSVSRKPRPPHTHSYTISHATLERIGAVPVMVPAQSRAGSLV
B4: MAGE-B1 (protein, UniProt P43366 1-347, looked up)
Melanoma-associated antigen B1: MPRGQKSKLRAREKRRKAREETQGLKVAHATAAEKEECPSSSPVLGDTPTSSPAAGIPQKPQGAPPTTTAAAAVSCTESDEGAKCQGEENASFSQATTSTESSVKDPVAWEAGMLMHFILRKYKMREPIMKADMLKVVDEKYKDHFTEILNGASRRLELVFGLDLKEDNPSGHTYTLVSKLNLTNDGNLSNDWDFPRNGLLMPLLGVIFLKGNSATEEEIWKFMNVLGAYDGEEHLIYGEPRKFITQDLVQEKYLKYEQVPNSDPPRYQFLWGPRAYAETTKMKVLEFLAKMNGATPRDFPSHYEEALRDEEERAQVRSSVRARRRTTATTFRARSRAPFSRSSHPM
B5: WBP2NL (protein, UniProt Q6ICG8 1-309, looked up)
Postacrosomal sheath WW …: MAVNQSHTENRRGALIPNGESLLKRSPNVELSFPQRSEGSNVFSGRKTGTLFLTSYRVIFITSCSISDPMLSFMMPFDLMTNLTVEQPVFAANFIKGTIQAAPYGGWEGQATFKLVFRNGDAIEFAQLMVKAASAAARGFPLRTLNDWFSSMGIYVITGEGNMCTPQMPCSVIVYGAPPAGYGAPPPGYGAPPAGYGAQPVGNEGPPVGYRASPVRYGAPPLGYGAPPAGYGAPPLGYGAPPLGYGTPPLGYGAPPLGYGAPPAGNEGPPAGYRASPAGSGARPQESTAAQAPENEASLPSASSSQVHS
B6: FATE1 (protein, UniProt Q969F0 1-183, looked up)
Fetal and adult …: MAGGPPNTKAEMEMSLAEELNHGRQGENQEHLVIAEMMELGSRSRGASQKKQKLEQKAAGSASAKRVWNMTATRPKKMGSQLPKPRMLRESGHGDAHLQEYAGNFQGIRFHYDRNPGTDAVAQTSLEEFNVLEMEVMRRQLYAVNRRLRALEEQGATWRHRETLIIAVLVSASIANLWLWMNQ
B7: TEKT5 (protein, UniProt Q96M29 1-485, looked up)
Tektin-5: MEFLGTTQTASYCGPKKCCGLTSLPAVQAPVIQECYQPYYLPGYRYLNSWRPSLFYKIANVQTCPDESTSTLRPPTILPTLRSALFSRYSPHDWDQSNQLQVRGAEASRLWASRLTDDSMRLLQDKDQLTHQMQEGTCRNLGQRLSDIGFWKSELSYELDRLLTENQNLETVKRRLECAANEVNCPLQVALECLYHREKRIGIDLVHDNVEKNLIREVDLLKCCQEQMRKLAQRIDIQMRDNRDAQHVLERDLEDKSSAQCIDEKCFNLRNTSDCISFFHGMEKIDGTISVPETWAKFSNDNIKHSQNMRANSIQLREEAEHLFETLSDQMWRQFTDTNLAFNARISEVTDVKNKLQTQLAKTLQEIFQAENTIMLLERSIMAKEGPLKVAQTRLECRTRRPNMELCRDIPQLKLVNEVFTIDDTLQTLKLRLRETQDTLQLLVMTKCRLEHELAIKANTLCIDKEKCMGMRKTFPCTPRLVGHT

Test system: TSA
[1] = TSA expression rate in BLADDER cancer
[2] = TSA expression rate in GASTRIC cancer
[3] = TSA expression rate in PROSTATE cancer
[4] = TSA expression rate in MELANOMA
[5] = TSA expression rate in LUNG cancer

| Molecule | TSA Expression Rate (ER) (BREAST) [%] | TSA Expression Rate (ER) (HCC) [%] | TSA Expression Rate (ER) (LUNG) [%] | TSA Expression Rate (ER) (OVARIAN) [%] | Expression Rate (ER) % [1] [%] | Expression Rate (ER) % (TSA expression rate in CRC) [%] | Expression Rate (ER) % [2] [%] | Expression Rate (ER) % (TSA expression rate in Kidney) [%] | Expression Rate (ER) % [3] [%] | Expression Rate (ER) % [4] [%] | TSA Expression Rate (ER) (BRAIN) [%] | Expression Rate (ER) % (TSA expression rate in LEUKEMIAS) [%] | Expression Rate (ER) % [5] [%] | Expression Rate (ER) % (TSA expression rate in HEAD and NECK) [%] |
| --- | --- | --- | --- | --- | --- | --- | --- | --- | --- | --- | --- | --- | --- | --- |
| B1 | 40 | 70 | 20 | 65 | 28 | 63 | 0 | 0 | 4 | – | – | – | – | – |
| B2 | – | 45 | – | – | 57 | 44 | – | – | – | 10 | – | – | – | – |
| B3 | – | 60 | – | – | – | – | 88 | – | – | – | – | – | – | – |
| B4 | – | 47 | – | – | 0 | 0 | – | 0 | 0 | 19 | 0 | 5 | 13 | – |
| B5 | 50 | – | – | – | – | – | – | – | – | – | – | – | – | – |
| B6 | – | 49 | – | – | – | 21 | 2 | – | – | – | – | – | 0 | – |
| B7 | – | 60 | – | – | – | 50 | 40 | – | 11 | – | – | – | 10 | 0 |
